System: Escherichia coli TOP10
Assay: shrunken log2 fold change of peptide-encoding DNA abundance (4.5 h post-induction vs induction); higher = less antimicrobial activity (less host growth inhibition)
Settings: time post-induction: 4.5 h; library: site-saturation at positions 5, 18, 19, 20
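Note: peptides expressed intracellularly from a pBAD plasmid library in pooled LB shake-flask culture, induced with 0.3% L-arabinose, DNA abundance read by NGS, three biological replicates, DESeq2 with apeglm shrinkage.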

Row | Sequence | shrunken log2 fold change
1 | RRIRCRPPRLPRPRPRPAQEPRP | 0.101
2 | RRIRCRPPRLPRPRPRPAQIPRP | 0.00931
3 | RRIRCRPPRLPRPRPRPARHPRP | 0.061
4 | RRIRCRPPRLPRPRPRPASAPRP | 0.248
5 | RRIRCRPPRLPRPRPRPASLPRP | -0.234
6 | RRIRCRPPRLPRPRPRPASRPRP | 0.096
7 | RRIRCRPPRLPRPRPRPASTPRP | -0.481
8 | RRIRCRPPRLPRPRPRPATMPRP | -0.0924
9 | RRIRCRPPRLPRPRPRPAVKPRP | -0.132
10 | RRIRCRPPRLPRPRPRPAWFPRP | 0.194
11 | RRIRCRPPRLPRPRPRPAYHPRP | -0.436
12 | RRIRCRPPRLPRPRPRPAYTPRP | -0.305
13 | RRIRCRPPRLPRPRPRPCACPRP | -0.421
14 | RRIRCRPPRLPRPRPRPCAKPRP | -0.168
15 | RRIRCRPPRLPRPRPRPCDKPRP | -0.266
16 | RRIRCRPPRLPRPRPRPCDWPRP | 0.116
17 | RRIRCRPPRLPRPRPRPCEPPRP | -0.221
18 | RRIRCRPPRLPRPRPRPCGPPRP | -0.104
19 | RRIRCRPPRLPRPRPRPCMMPRP | -0.914
20 | RRIRCRPPRLPRPRPRPCMQPRP | -0.345
21 | RRIRCRPPRLPRPRPRPCNSPRP | -0.0476
22 | RRIRCRPPRLPRPRPRPCQMPRP | -0.609
23 | RRIRCRPPRLPRPRPRPCQPPRP | -0.149
24 | RRIRCRPPRLPRPRPRPCQQPRP | -0.0438
25 | RRIRCRPPRLPRPRPRPCRVPRP | -0.438

Row | Sequence | shrunken log2 fold change
26 | RRIRCRPPRLPRPRPRPCSLPRP | -0.477
27 | RRIRCRPPRLPRPRPRPCTCPRP | -0.583
28 | RRIRCRPPRLPRPRPRPCWTPRP | -0.223
29 | RRIRCRPPRLPRPRPRPCYFPRP | -0.779
30 | RRIRCRPPRLPRPRPRPCYPPRP | -0.743
31 | RRIRCRPPRLPRPRPRPCYTPRP | -0.397
32 | RRIRCRPPRLPRPRPRPDARPRP | -0.0562
33 | RRIRCRPPRLPRPRPRPDASPRP | 0.27
34 | RRIRCRPPRLPRPRPRPDCFPRP | 0.182
35 | RRIRCRPPRLPRPRPRPDDSPRP | 0.14
36 | RRIRCRPPRLPRPRPRPDEHPRP | -0.417
37 | RRIRCRPPRLPRPRPRPDEWPRP | -0.0372
38 | RRIRCRPPRLPRPRPRPDGAPRP | 0.129
39 | RRIRCRPPRLPRPRPRPDGCPRP | -0.0861
40 | RRIRCRPPRLPRPRPRPDKFPRP | -0.296
41 | RRIRCRPPRLPRPRPRPDKNPRP | -0.369
42 | RRIRCRPPRLPRPRPRPDLNPRP | 0.127
43 | RRIRCRPPRLPRPRPRPDLVPRP | -0.0994
44 | RRIRCRPPRLPRPRPRPDMLPRP | -0.283
45 | RRIRCRPPRLPRPRPRPDNAPRP | -0.164
46 | RRIRCRPPRLPRPRPRPDQFPRP | 0.07
47 | RRIRCRPPRLPRPRPRPDRSPRP | 0.208
48 | RRIRCRPPRLPRPRPRPDSCPRP | 0.0373
49 | RRIRCRPPRLPRPRPRPDSLPRP | -0.0818
50 | RRIRCRPPRLPRPRPRPDTPPRP | 0.0764

Row | Sequence | shrunken log2 fold change
51 | RRIRCRPPRLPRPRPRPDTQPRP | -0.239
52 | RRIRCRPPRLPRPRPRPDTYPRP | -0.075
53 | RRIRCRPPRLPRPRPRPDWFPRP | -0.141
54 | RRIRCRPPRLPRPRPRPDWVPRP | 0.0222
55 | RRIRCRPPRLPRPRPRPDYMPRP | -0.133
56 | RRIRCRPPRLPRPRPRPEAWPRP | 0.976
57 | RRIRCRPPRLPRPRPRPECQPRP | 0.511
58 | RRIRCRPPRLPRPRPRPEDFPRP | -0.198
59 | RRIRCRPPRLPRPRPRPEFAPRP | 0.375
60 | RRIRCRPPRLPRPRPRPEGEPRP | 3.03
61 | RRIRCRPPRLPRPRPRPEGIPRP | -0.106
62 | RRIRCRPPRLPRPRPRPEICPRP | 0.0631
63 | RRIRCRPPRLPRPRPRPEIGPRP | -0.237
64 | RRIRCRPPRLPRPRPRPEITPRP | 0.0771
65 | RRIRCRPPRLPRPRPRPELEPRP | 0.285
66 | RRIRCRPPRLPRPRPRPELMPRP | 0.23
67 | RRIRCRPPRLPRPRPRPEMMPRP | 0.0935
68 | RRIRCRPPRLPRPRPRPENYPRP | -0.474
69 | RRIRCRPPRLPRPRPRPEPIPRP | -0.0787
70 | RRIRCRPPRLPRPRPRPEQCPRP | 0.237
71 | RRIRCRPPRLPRPRPRPESQPRP | -0.0239
72 | RRIRCRPPRLPRPRPRPESTPRP | 0.0373
73 | RRIRCRPPRLPRPRPRPEVFPRP | 0.00979
74 | RRIRCRPPRLPRPRPRPEVYPRP | -0.0302
75 | RRIRCRPPRLPRPRPRPEWDPRP | 0.309

Row | Sequence | shrunken log2 fold change
76 | RRIRCRPPRLPRPRPRPEWEPRP | -0.00663
77 | RRIRCRPPRLPRPRPRPEWMPRP | -0.0041
78 | RRIRCRPPRLPRPRPRPEWYPRP | -0.256
79 | RRIRCRPPRLPRPRPRPFCHPRP | -0.142
80 | RRIRCRPPRLPRPRPRPFCWPRP | 0.31
81 | RRIRCRPPRLPRPRPRPFDRPRP | -0.115
82 | RRIRCRPPRLPRPRPRPFFCPRP | -0.132
83 | RRIRCRPPRLPRPRPRPFFDPRP | -0.199
84 | RRIRCRPPRLPRPRPRPFFHPRP | -0.364
85 | RRIRCRPPRLPRPRPRPFFPPRP | -0.167
86 | RRIRCRPPRLPRPRPRPFFVPRP | -0.209
87 | RRIRCRPPRLPRPRPRPFGRPRP | -0.207
88 | RRIRCRPPRLPRPRPRPFGVPRP | -0.0152
89 | RRIRCRPPRLPRPRPRPFHFPRP | -0.954
90 | RRIRCRPPRLPRPRPRPFHMPRP | -0.36
91 | RRIRCRPPRLPRPRPRPFINPRP | -1.1
92 | RRIRCRPPRLPRPRPRPFKHPRP | -0.272
93 | RRIRCRPPRLPRPRPRPFKLPRP | -0.62
94 | RRIRCRPPRLPRPRPRPFLIPRP | -0.36
95 | RRIRCRPPRLPRPRPRPFMFPRP | -0.421
96 | RRIRCRPPRLPRPRPRPFNLPRP | -0.335
97 | RRIRCRPPRLPRPRPRPFNMPRP | -0.052
98 | RRIRCRPPRLPRPRPRPFNPPRP | -0.558
99 | RRIRCRPPRLPRPRPRPFQAPRP | 0.0554
100 | RRIRCRPPRLPRPRPRPFRFPRP | -0.83

Row | Sequence | shrunken log2 fold change
101 | RRIRCRPPRLPRPRPRPFSAPRP | -0.565
102 | RRIRCRPPRLPRPRPRPFTFPRP | -0.351
103 | RRIRCRPPRLPRPRPRPFTVPRP | -0.456
104 | RRIRCRPPRLPRPRPRPFVLPRP | -0.469
105 | RRIRCRPPRLPRPRPRPFWMPRP | -0.176
106 | RRIRCRPPRLPRPRPRPFWNPRP | -0.278
107 | RRIRCRPPRLPRPRPRPFYHPRP | -0.668
108 | RRIRCRPPRLPRPRPRPFYQPRP | -0.163
109 | RRIRCRPPRLPRPRPRPGALPRP | 0.264
110 | RRIRCRPPRLPRPRPRPGAQPRP | 0.312
111 | RRIRCRPPRLPRPRPRPGCSPRP | -0.182
112 | RRIRCRPPRLPRPRPRPGELPRP | 0.139
113 | RRIRCRPPRLPRPRPRPGFEPRP | 0.244
114 | RRIRCRPPRLPRPRPRPGHGPRP | -0.0435
115 | RRIRCRPPRLPRPRPRPGIPPRP | -0.126
116 | RRIRCRPPRLPRPRPRPGIVPRP | -0.0688
117 | RRIRCRPPRLPRPRPRPGLTPRP | 0.108
118 | RRIRCRPPRLPRPRPRPGLYPRP | -0.432
119 | RRIRCRPPRLPRPRPRPGMCPRP | 0.125
120 | RRIRCRPPRLPRPRPRPGMPPRP | -0.257
121 | RRIRCRPPRLPRPRPRPGNAPRP | 0.185
122 | RRIRCRPPRLPRPRPRPGNKPRP | -0.223
123 | RRIRCRPPRLPRPRPRPGNRPRP | 0.0246
124 | RRIRCRPPRLPRPRPRPGNSPRP | -0.429
125 | RRIRCRPPRLPRPRPRPGQDPRP | -0.0365

Row | Sequence | shrunken log2 fold change
126 | RRIRCRPPRLPRPRPRPGQTPRP | 0.0466
127 | RRIRCRPPRLPRPRPRPGRCPRP | 0.436
128 | RRIRCRPPRLPRPRPRPGSCPRP | -0.0844
129 | RRIRCRPPRLPRPRPRPGSQPRP | 0.0392
130 | RRIRCRPPRLPRPRPRPGSRPRP | 0.235
131 | RRIRCRPPRLPRPRPRPGSTPRP | -0.474
132 | RRIRCRPPRLPRPRPRPGTSPRP | 0.0279
133 | RRIRCRPPRLPRPRPRPGVCPRP | 0.117
134 | RRIRCRPPRLPRPRPRPGWMPRP | 0.0485
135 | RRIRCRPPRLPRPRPRPGYEPRP | -0.00917
136 | RRIRCRPPRLPRPRPRPHAYPRP | -0.759
137 | RRIRCRPPRLPRPRPRPHCHPRP | -0.475
138 | RRIRCRPPRLPRPRPRPHDWPRP | 0.112
139 | RRIRCRPPRLPRPRPRPHEEPRP | 0.0524
140 | RRIRCRPPRLPRPRPRPHFDPRP | 0.0458
141 | RRIRCRPPRLPRPRPRPHFRPRP | -0.308
142 | RRIRCRPPRLPRPRPRPHGQPRP | 0.0389
143 | RRIRCRPPRLPRPRPRPHGTPRP | -0.0488
144 | RRIRCRPPRLPRPRPRPHHFPRP | -0.219
145 | RRIRCRPPRLPRPRPRPHHHPRP | -0.815
146 | RRIRCRPPRLPRPRPRPHHIPRP | -0.88
147 | RRIRCRPPRLPRPRPRPHLIPRP | 0.282
148 | RRIRCRPPRLPRPRPRPHNLPRP | -0.592
149 | RRIRCRPPRLPRPRPRPHQCPRP | -0.24
150 | RRIRCRPPRLPRPRPRPHQYPRP | -0.05
